Our source for the Kd values is publication PMC8560851.

For orientation: Kd means the free concentration of one partner at which half of the binding sites on the other are occupied at equilibrium, for simple one-to-one binding.

The target of the experiment is Full-length isoform 165 of human VEGF-A (human) (UniProt P15692). In words: SPR; Biacore T200, 25 °C, PBS with 0.05% Tween 20 and 3.4 mM EDTA; VEGF-A amine-coupled to a CM-5 chip; Fab injected in single cycle kinetics with five increasing concentrations; double referenced; fit to a 1:1 Langmuir binding model. (SPR reads the build-up and loss of mass on a sensor chip optically.)
Chain of Full-length isoform 165 of human VEGF-A (human) (P15692 other isoform, or with tags, fused parts or gaps): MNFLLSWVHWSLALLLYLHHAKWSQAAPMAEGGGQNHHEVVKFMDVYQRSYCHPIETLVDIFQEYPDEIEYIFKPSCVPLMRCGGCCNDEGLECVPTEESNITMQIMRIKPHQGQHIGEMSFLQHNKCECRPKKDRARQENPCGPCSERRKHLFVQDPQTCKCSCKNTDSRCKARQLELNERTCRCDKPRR

B1: bH1 Fab H3 variant 16_0325 (Fab, V domains shown)
VH: EVQLVESGGGLVQPGGSLRLSCAASGFNIKDTYIHWVRQAPGKGLEWVARIYPTNGYTRYADSVKGRFTISADTSKNTAYLQMNSLRAEDTAVYYCARGGAVAGTGVYYFDYWGQGTLVTVSS
VL: DIQMTQSPSSLSASVGDRVTITCRASQDIPRSISGYVAWYQQKPGKAPKLLIYWGSYLYSGVPSRFSGSGSGTDFTLTISSLQPEDFATYYCQQHYTTPPTFGQGTKVEIK
Molecule B1 yielded a Kd of 8 nM.

B2: bH1 Fab H3 variant 14_0112 (Fab, V domains shown)
VH: EVQLVESGGGLVQPGGSLRLSCAASGFNIKDTYIHWVRQAPGKGLEWVARIYPTNGYTRYADSVKGRFTISADTSKNTAYLQMNSLRAEDTAVYYCAKGGSSSGPYHFEYWGQGTLVTVSS
VL: DIQMTQSPSSLSASVGDRVTITCRASQDIPRSISGYVAWYQQKPGKAPKLLIYWGSYLYSGVPSRFSGSGSGTDFTLTISSLQPEDFATYYCQQHYTTPPTFGQGTKVEIK
Regarding B2, the Kd came out at 8 nM.
